These results are taken from patent US20260232732A1 (FUNDACI INSTITUT DE RECERCA CONTRA LA LEUC MIA JOSEP …, published 2026).

Where no end group is shown, it is not given here. The star is where a group is joined. Biotin = O=C1N[C@H]2[C@H](CS[C@H]2CCCCC(=O)*)N1

For experiment [1], the target named is T1, biotin-peptide TSSMEDYVNF (human).
T1 peptide: Biotin-TSSMEDYVNF
In words: ELISA biotin-peptide; scFv 1.25 ug/mL; repII. Here is the method: (§1) The peptides were synthesized naked or with a N-terminal Biotin modification with a purity of >98%. All four scFvs were verified by ELISA that can be detected with anti-His antibodies. ELISA was performed for scFv-peptide binding validation. Briefly, naked peptides were coated (50 μg/mL) in 0.58M carbonate-bicarbonate buffer pH9.5, 100 μL/well, 4° C. O/N. Then after blocking (3% BSA-PBS, 300 μL/well 37° C. 1.5 h) and washing (PBS+Tween-20 0.05% v/v (0.05% PBST), wells were incubated with each purified scFv antibody at concentration of 1 μg/mL in PBS at 37° C. 1 h. After washing (0.05% PBST), wells were incubated with secondary antibodies (goat anti-His IgG-HRP) in PBS, 37° C., 30 min. After washing, and incubation with TMB substrate, reactions were stopped with 2M HCl and reading was quantified at OD450.
(§2) ELISA with biotin-conjugated peptides (5 μg/mL) was performed very similar to described above with minor modifications.
(§3) A full curve ELISA was performed for each positive scFv/biotin-peptide pair in order to confirm previous results. Tables 15-17 show ELISA results of the dose-dependent full curve for each positive peptide with scFv “CCR9_HUM”, “Comp-2” and “Comp-3”, respectively.

Experiment [2] deals with T2, biotin-peptide SMEDYVNFNF (human).
T2 peptide: Biotin-SMEDYVNFNF
In words: ELISA biotin-peptide; scFv 1.25 ug/mL; repII. Here is the method:
as §1, §2, §3
A general note: In an ELISA, binding on a coated surface is turned into a signal by an enzyme label.

The target of experiment [3] is T3, biotin-peptide MEDYVNFNFT (human).
T3 peptide: Biotin-MEDYVNFNFT
In words: ELISA biotin-peptide; scFv 1.25 ug/mL; repII. Here is the method:
as §1, §2, §3

Experiment [4] deals with T4, biotin-peptide SSMEDYVNFN (human).
T4 peptide: Biotin-SSMEDYVNFN
In words: ELISA biotin-peptide; scFv 1.25 ug/mL; repII. Here is the method:
as §1, §2, §3

The target in experiment [5] is T1, biotin-peptide TSSMEDYVNF
Kind of experiment: ELISA biotin-peptide; scFv 5 ug/mL; repII. Here is the method:
as §1, §2, §3

Experiment [6] concerns the target T2, biotin-peptide SMEDYVNFNF
Kind of experiment: ELISA biotin-peptide; scFv 5 ug/mL; repII. The protocol:
as §1, §2, §3

Experiment [7] concerns the target T3, biotin-peptide MEDYVNFNFT
Kind of experiment: ELISA biotin-peptide; scFv 5 ug/mL; repII. Here is the method: as §1, §2, §3

In experiment [8] the target is T4, biotin-peptide SSMEDYVNFN
In words: ELISA biotin-peptide; scFv 5 ug/mL; repII. Here is the method: as §1, §2, §3

For experiment [9], the target named is T5, Peptide 4-BSA (SMEDYVNFNF-C conjugated to BSA) (human).
T5 peptide: SMEDYVNFNFC(BSA)
Kind of experiment: ELISA; Ab 0.0625 ug/mL; repII. Here is the method:
(§4) In brief, plates with each non-conjugated peptide (50 μg/mL) or BSA-conjugated peptide (5 μg/mL) were coated in 0.58M carbonate-bicarbonate buffer pH9.5, 100 μL/well, at 4° C. […] After washing, wells were incubated with the 3, 3′,5,5′-Tetramethylbenzidine (TMB) HRP substrate and reactions were stopped with 2M HCl and OD450 was recorded.

Experiment [10] has as its target T6, Peptide 3-BSA (SSMEDYVNFN-C conjugated to BSA) (human).
T6 peptide: SSMEDYVNFNC(BSA)
Kind of experiment: ELISA; Ab 0.0625 ug/mL; repII. Here is the method:
as §4

Experiment [11] has as its target T7, BSA (negative control coating) (bovine, UniProt P02769 25-607).
T7 construct: also called Negative control BSA
Kind of experiment: ELISA; Ab 0.0625 ug/mL; repII. The protocol:
as §4

The target of experiment [12] is T8, Peptide 4, non-conjugated (SMEDYVNFNF-C) (human).
T8 construct: With the extra C-terminal Cys
T8 peptide: SMEDYVNFNFC
Kind of experiment: ELISA; Ab 0.25 ug/mL; repII. Here is the method: as §4

The target in experiment [13] is T9, Peptide 2, non-conjugated (GSESTSSMED-C) (human).
T9 construct: With the extra C-terminal Cys
T9 peptide: GSESTSSMEDC
Kind of experiment: ELISA; Ab 0.25 ug/mL; repII. Here is the method:
as §4

For experiment [14], the target named is T10, antigen peptide-BSA (immunisation peptide #1 MADDYGSESTSSMEDYVNFNF-C conjugated to BSA) (human, extra C-terminal Cys conjugated to BSA).
T10 construct: also called Positive control antigen peptide-BSA; MADDY peptide
T10 peptide: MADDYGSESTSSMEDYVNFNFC
In words: ELISA; Ab 0.25 ug/mL; repII. The protocol:
as §4

For experiment [15], the target named is T5, Peptide 4-BSA (SMEDYVNFNF-C conjugated …). Kind of experiment: ELISA; Ab 0.25 ug/mL; repI. Here is the method: as §4
The target in experiment [16] is T11, Peptide 1-BSA (MADDYGSEST-C conjugated to BSA) (human).
T11 peptide: MADDYGSESTC(BSA)
In words: ELISA; Ab 0.25 ug/mL; repI. Here is the method: as §4

Experiment [17] deals with T8, Peptide 4, non-conjugated (SMEDYVNFNF-C). In words: ELISA; Ab 0.25 ug/mL; repI. The protocol:
as §4

For experiment [18], the target named is T6, Peptide 3-BSA (SSMEDYVNFN-C conjugated …). Kind of experiment: ELISA; Ab 0.25 ug/mL; repI. Here is the method:
as §4

Experiment [19] addresses T9, Peptide 2, non-conjugated (GSESTSSMED-C). Kind of experiment: ELISA; Ab 0.25 ug/mL; repI. The protocol: as §4
In experiment [20] the target is T12, Peptide 1, non-conjugated (MADDYGSEST-C) (human).
T12 construct: With the extra C-terminal Cys
T12 peptide: MADDYGSESTC
Kind of experiment: ELISA; Ab 0.25 ug/mL; repI. The protocol: as §4

For experiment [21], the target named is T10, antigen peptide-BSA (immunisation …). Kind of experiment: ELISA; Ab 0.25 ug/mL; repI. Here is the method:
as §4

In experiment [22] the target is T13, Peptide 2-BSA (GSESTSSMED-C conjugated to BSA) (human).
T13 peptide: GSESTSSMEDC(BSA)
In words: ELISA; Ab 0.25 ug/mL; repI. The protocol: as §4

Experiment [23] deals with T7, BSA (negative control coating). In words: ELISA; Ab 0.25 ug/mL; repI. The protocol:
as §4

Experiment [24] concerns the target T14, Peptide 3, non-conjugated (SSMEDYVNFN-C) (human).
T14 construct: With the extra C-terminal Cys
T14 peptide: SSMEDYVNFNC
Kind of experiment: ELISA; Ab 0.25 ug/mL; repI. The protocol:
as §4

For experiment [25], the target named is T9, Peptide 2, non-conjugated (GSESTSSMED-C). Kind of experiment: ELISA, non-conjugated peptide coated. The protocol:
as §4

The target in experiment [26] is T12, Peptide 1, non-conjugated (MADDYGSEST-C). In words: ELISA, non-conjugated peptide coated. Here is the method: as §4

T7 sequence (P02769 25-607 limits assumed): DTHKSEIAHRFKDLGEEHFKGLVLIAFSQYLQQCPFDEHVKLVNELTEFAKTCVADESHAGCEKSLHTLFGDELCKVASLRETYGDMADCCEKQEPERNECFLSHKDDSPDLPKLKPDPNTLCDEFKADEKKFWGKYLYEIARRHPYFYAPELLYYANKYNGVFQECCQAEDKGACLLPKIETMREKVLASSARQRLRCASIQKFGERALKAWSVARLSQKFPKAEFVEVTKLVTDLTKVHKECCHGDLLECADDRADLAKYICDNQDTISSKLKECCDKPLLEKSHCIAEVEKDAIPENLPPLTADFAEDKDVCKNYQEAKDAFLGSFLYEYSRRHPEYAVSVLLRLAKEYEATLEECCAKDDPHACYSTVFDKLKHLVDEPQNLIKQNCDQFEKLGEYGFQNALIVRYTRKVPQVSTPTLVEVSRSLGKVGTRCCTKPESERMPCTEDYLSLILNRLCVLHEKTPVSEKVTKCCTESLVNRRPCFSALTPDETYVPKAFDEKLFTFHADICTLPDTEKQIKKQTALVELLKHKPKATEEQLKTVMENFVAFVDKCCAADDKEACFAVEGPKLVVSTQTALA

B1: CCR9_HUM2 scFv (humanized anti-CCR9 scFv, SEQ ID NO: 17 with C-terminal 6xHis tag) (scFv)
scFv: QVQLVQSGAEVKKPGASVKVSCTASGYSFTDYIIYWVKQAHGQSLEWMGYIDPNNYNTRYSQKFQGKVTITVDKSSTSAYMELNSLTSDDTAVYYCARDVYWGQGTTVTVSSGGGGSGGGGSGGGGSGGGGSDVVMTQTPLSLSVTPGQPASISCRSSQSLVHSNGKTYLQWYLQKPGQSPKLLIYKVSNRFSGVPDRFSGSGSGTDFTLKISRVEAEDVGVYFCAQSTHVWTFGGGTKVEIKRAHHHHHH
In the case of B1, the OD450 in experiment [1] was 1.23 OD; in experiment [2], 1.72 OD; in experiment [3], 1.49 OD; in [4], 1.77 OD; in experiment [5], 1.38 OD; in experiment [6], 1.79 OD. The OD450 in experiment [7] amounted to 1.72 OD; in [8], 1.82 OD.

B2: anti-CCR9 antibody clone 115 (murine, from hybridoma #115) (antibody, V domains shown)
VH: QVQLKQSGPELVKPGTSVRVSCTASGYSFTDYIIYWVKQSHGRSLEWIGYIDPNNYNTRYSQKFKGKATLTVDKSSTSAFMHLNSLTSDDSAVYYCARDVYWGQGTTLTVSS
VL: DVVMTQTPLSLTVSLGDQASISCRSSQSLVHSNGKTYLQWYLQKPGQSPKLLIYKVSNRFSGVPDRFSGSGSGTDFTLKISRVEAEDLGVYFCAQSTHVWTFGGGTKLEIKR
notes: Mouse IgG1
Regarding B2, the OD450 in experiment [9] is 2.01 OD; in [10], 1.78 OD; in experiment [11] it was 0.01 OD; in experiment [12] it was 2.24 OD; in [13], 0.01 OD; in experiment [14] it was 2.42 OD. The OD450 in experiment [15] stood at 2.46 OD; in experiment [16], 0.02 OD; in experiment [17], 2.09 OD; in experiment [18], 1.95 OD; in [19], 0.02 OD; in experiment [20] it was 0.02 OD. Besides, the OD450 is 2.29 OD in experiment [21], 0.02 OD in [22], 0.01 OD in experiment [23] and 1.89 OD in experiment [24]. In addition, the binding result in experiment [25] and in [26] was “no binding (tested: 1 ug/mL)” in each case.
